Our source for the IC50 values is patent publication US20100310640A1 (published 2010).

The target in experiment [1] is HLA-DR DRB1*1501 (human). Put plainly: radiolabeled-peptide inhibition, purified HLA-DR.
Experiment [2] addresses HLA-DR DRB1*1501 (human). Put plainly: radioligand inhibition, purified HLA-DR.
Experiment [3] deals with HLA-DR DRB1*1501 (human). The experiment is described as follows: radioligand inhibition, purified HLA-DR. The source holds these as a separate data set.
In experiment [4] the target is HLA-DR DRB1*0101 (human). The experiment is described as follows: radiolabeled-peptide inhibition, purified HLA-DR.
Experiment [5] addresses HLA-DR DRB1*0701 (human). Put plainly: radioligand inhibition, purified HLA-DR.
For experiment [6], the target named is HLA-DR DRB1*0401 (human). Put plainly: radioligand inhibition, purified HLA-DR.
Experiment [7] addresses HLA-DR DRB1*0301 (human). Put plainly: radioligand inhibition, purified HLA-DR.
For the next experiment, the target named is HLA-DR DRB3*0101 (human). The experiment is described as follows: radioligand inhibition, purified HLA-DR.
Experiment [8] has as its target HLA-DR DRB1*0101 (human). The experiment is described as follows: radioligand inhibition, purified HLA-DR.
Experiment [9] concerns the target HLA-DR DRB1*1302 (human). Put plainly: radioligand inhibition, purified HLA-DR.
Experiment [10] addresses HLA-DR DRB1*1501 (human). The experiment is described as follows: radioligand inhibition, purified HLA-DR. This is another data set of the same source.
Experiment [11] has as its target HLA-DR DRB1*0401 (human). The experiment is described as follows: radioligand inhibition, purified HLA-DR. This is another data set of the same source.
The target of experiment [12] is HLA-DR DRB1*0101 (human). Put plainly: radioligand inhibition, purified HLA-DR. The source holds these as a separate data set.
For experiment [13], the target named is HLA-DR DRB1*0701 (human). The experiment is described as follows: radioligand inhibition, purified HLA-DR. This is another data set of the same source.
For experiment [14], the target named is HLA-DR DRB1*1302 (human). The experiment is described as follows: radioligand inhibition, purified HLA-DR. This is another data set of the same source.
The target in experiment [15] is HLA-DR DRB1*0401 (human). The experiment is described as follows: radiolabeled-peptide inhibition, purified HLA-DR.
Experiment [16] has as its target HLA-DR DRB1*0701 (human). Put plainly: radiolabeled-peptide inhibition, purified HLA-DR.
Experiment [17] concerns the target HLA-DR DRB1*0301 (human). The experiment is described as follows: radioligand inhibition, purified HLA-DR. This is another data set of the same source.

The molecule GMSYLEDVRLVHRDL [9019.0002] showed an IC50 with HLA-DR DRB1*1501 [1] of 0.567 µM.

Turning to ICELHCPALVTYNTD [Her2/neu.263], the IC50 in the experiment with HLA-DR DRB1*1501 [2] stood at 0.748 µM. TVGIMIGVLVGVALI [CEA.688 peptide 9019.05] yielded an IC50 with HLA-DR DRB1*1501 [3] of 7.77 µM. This lies in the single-digit micromolar range. In the experiment with HLA-DR DRB1*0101 [4], PSGVKPDLSYMPIWK [9019.0065] showed an IC50 of 1.03 µM. As to MRKIVATWMLEVCEE [Cyclin D1.56], the half-maximal inhibitory concentration (IC50) with HLA-DR DRB1*1501 [2] turned out to be 0.087 µM. This lies in the double-digit nanomolar range. Molecule INGIPQQHTQVLFIA [CEA.629 peptide 9019.0139] displayed an IC50 with HLA-DR DRB1*1501 [3] of 8.29 µM. SEGGLVENHVDSTMN [Peptide 9019.0183]: the IC50 in the experiment with HLA-DR DRB1*0701 [5] is 4.62 µM; in the experiment with HLA-DR DRB1*0401 [6] it was 1.2 µM. Consider CAELVREPGCGCCSV [Peptide 9019.0015], for which, in the experiment with HLA-DR DRB1*0301 [7], the IC50 came out at 12.3 µM. With FRELVSEFSRMARDP [Peptide 9019.0096], the IC50 with HLA-DR DRB3*0101 was found to be 4.54 µM.

Consider SITVSASGTSPGLSA [CEA.671 peptide 9919.0143], for which the IC50 with HLA-DR DRB1*1501 [3] worked out at 3.11 µM.

Molecule VCGIQNSVSANRSDP [CEA.570 peptide 9012.0135] displayed an IC50 in the experiment with HLA-DR DRB1*1501 [3] of 8.98 µM. EALLESSLRQAQQNM [Cyclin D1.252] gave an IC50 with HLA-DR DRB1*1501 [2] of 8.18 µM. In other words, the single-digit micromolar range. Molecule SSYLSGANLNLSCHS [CEA.603 peptide 9012.0137] came in with an IC50 with HLA-DR DRB1*1501 [3] of 13 µM. That is a double-digit micromolar value.

In turn, QYSWRINGIPQQHTQ [CEA.624 peptide 9019.0138] returned an IC50 in the experiment with HLA-DR DRB1*1501 [3] of 2.07 µM. On to ITGYLYISAWPDSLP [9019.0050], for which half-maximal inhibition with HLA-DR DRB1*1501 [1] (IC50) required 0.152 µM. Take RWCIPWQRLLLTASL [CEA.10 peptide 9019.0104]: the IC50 with HLA-DR DRB1*1501 [3] came out at 0.061 µM. Turning to TTPVTGASPGGLREL [Her2/neu.126], the IC50 with HLA-DR DRB1*1501 [2] turned out to be 17.1 µM. On to LPRVGCPALPLPPPP [Peptide 9919.0173], for which the IC50 in the experiment with HLA-DR DRB1*0101 [8] was found to be 1.91 µM; in the experiment with HLA-DR DRB1*1302 [9] it was 8.94 µM; with HLA-DR DRB1*0401 [6] it was 6.54 µM. ICTIDVYMIMVKCWM [Peptide 1622.04]: the IC50 in the experiment with HLA-DR DRB1*1501 [10] stood at 2.65 µM. Same read-out and setting: for PERLAACGPPPVAPP [Peptide 9019.0179] the value was 4.05 µM. In turn, KLCIYTDNSIRPEEL [Cyclin D1.123] yielded an IC50 in the experiment with HLA-DR DRB1*1501 [2] of 0.025 µM.

SPGLSAGATVGIMIG [CEA.680 peptide 9019.0144]: in the experiment with HLA-DR DRB1*1501 [3], the IC50 came to 3.93 µM. Regarding KIPVAIKVLRENTSP [1622.03], half-maximal inhibition with HLA-DR DRB1*1501 [1] (IC50) required 0.611 µM. This lies in the sub-micromolar range. For GDPLNNTTPVTGASP [Her2/neu.120], the IC50 came out at 7.46 µM with HLA-DR DRB1*0401 [11], 6.36 µM with HLA-DR DRB1*0101 [12], 13.2 µM with HLA-DR DRB1*0701 [13] and 1.03 µM in the experiment with HLA-DR DRB1*1302 [14].

With GATLERPKTLSPGKN [Peptide 9019.0102], the values for the half-inhibitory concentration (IC50) in the experiment with HLA-DR DRB1*0101 [8], in the experiment with HLA-DR DRB1*1302 [9] and with HLA-DR DRB1*0401 [6] were 1.81 µM, 5.33 µM and 2.79 µM, respectively. Take LQGLPREYVNARHCL [9019.0064]: the IC50 in the experiment with HLA-DR DRB1*1501 [1] is 0.423 µM. This lies in the sub-micromolar range. CYGLGMEHLREVRAV [9019.0044] registered an IC50 with HLA-DR DRB1*1501 [1] of 0.69 µM.

In the experiment with HLA-DR DRB1*1501 [10], APTIRGDPECHLFYN [Peptide 9019.0022] registered an IC50 of 3.67 µM. This lies in the single-digit micromolar range. With SDVWSYGVTVWELMT [9019.0089], the IC50 with HLA-DR DRB1*1501 [1] amounted to 1.88 µM. Still for that read-out and setting: the figure for ILLVVVLGVVFGILI [9019.0068] is 7.12 µM.

In the experiment with HLA-DR DRB1*1501 [10], LQRYSEDPTVPLPSE [Peptide 9019.0099] came in with an IC50 of 5.31 µM. This counts as single-digit micromolar. Consider ELPLQALVMGEGTCE [Peptide 9019.0182], for which the half-inhibitory concentration (IC50) amounted to 1.5 µM in the experiment with HLA-DR DRB1*0101 [8], 15.6 µM with HLA-DR DRB1*0701 [5], 9.17 µM in the experiment with HLA-DR DRB1*1302 [9] and 6.78 µM in the experiment with HLA-DR DRB1*0401 [6]. In the experiment with HLA-DR DRB1*1501 [10], RPRFRELVSEFSRMA [Peptide 9019.0095] displayed an IC50 of 0.348 µM. Consider GHCWGPGPTQCVNCS [9019.0061], for which the values for the IC50 with HLA-DR DRB1*0401 [15], with HLA-DR DRB1*0701 [16] and with HLA-DR DRB1*0101 [4] were 3.74 µM, 6.74 µM and 1.91 µM, respectively. Turning to ISAVVGILLVVVLGV [9019.0067], in the experiment with HLA-DR DRB1*1501 [1], the IC50 is 6 µM. For WNLAAMTPHDFIEHF [Cyclin D1.150], in the experiment with HLA-DR DRB1*0101 [12], the IC50 stood at 6.42 µM. In the experiment with HLA-DR DRB1*0301 [17], EELLQMELLLVNKLK [Cyclin D1.135] returned an IC50 of 3.39 µM. DNSIRPEELLQMELL [Cyclin D1.129] registered an IC50 with HLA-DR DRB1*1501 [2] of 4.76 µM. SDSVILNVLYGPDAP [CEA.123 peptide 9019.0119 (position 226)] displayed an IC50 in the experiment with HLA-DR DRB1*1501 [3] of 0.351 µM. In the experiment with HLA-DR DRB1*1501 [1], PESFDGDPASNTAPL [9019.0048] yielded an IC50 of 0.805 µM.
